Measured values reported in patent KR20200132110A (dated 2020).

Assays:
CTLA-4 = target: T1, CTLA-4 (UniProt P16410 36-161, limits assumed); assay: ELISA, 100 nM coated protein
T1 construct: Negative control; The construct is not described
T1 sequence (looked up): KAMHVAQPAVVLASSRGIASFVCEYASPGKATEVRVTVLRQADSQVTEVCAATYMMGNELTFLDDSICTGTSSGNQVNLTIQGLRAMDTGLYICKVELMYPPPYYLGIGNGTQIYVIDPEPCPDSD

BSA = target: T2, BSA (UniProt P02769 25-607); assay: ELISA, 100 nM coated protein
T2 construct: Negative control

[1] = target: CD71 (on cancer stem cells and cancer cell lines) (UniProt P02786 1-760, limits assumed); assay: cell-based or functional assay
CD71 (on cancer stem cells and cancer cell lines), sequence (P02786 whole entry): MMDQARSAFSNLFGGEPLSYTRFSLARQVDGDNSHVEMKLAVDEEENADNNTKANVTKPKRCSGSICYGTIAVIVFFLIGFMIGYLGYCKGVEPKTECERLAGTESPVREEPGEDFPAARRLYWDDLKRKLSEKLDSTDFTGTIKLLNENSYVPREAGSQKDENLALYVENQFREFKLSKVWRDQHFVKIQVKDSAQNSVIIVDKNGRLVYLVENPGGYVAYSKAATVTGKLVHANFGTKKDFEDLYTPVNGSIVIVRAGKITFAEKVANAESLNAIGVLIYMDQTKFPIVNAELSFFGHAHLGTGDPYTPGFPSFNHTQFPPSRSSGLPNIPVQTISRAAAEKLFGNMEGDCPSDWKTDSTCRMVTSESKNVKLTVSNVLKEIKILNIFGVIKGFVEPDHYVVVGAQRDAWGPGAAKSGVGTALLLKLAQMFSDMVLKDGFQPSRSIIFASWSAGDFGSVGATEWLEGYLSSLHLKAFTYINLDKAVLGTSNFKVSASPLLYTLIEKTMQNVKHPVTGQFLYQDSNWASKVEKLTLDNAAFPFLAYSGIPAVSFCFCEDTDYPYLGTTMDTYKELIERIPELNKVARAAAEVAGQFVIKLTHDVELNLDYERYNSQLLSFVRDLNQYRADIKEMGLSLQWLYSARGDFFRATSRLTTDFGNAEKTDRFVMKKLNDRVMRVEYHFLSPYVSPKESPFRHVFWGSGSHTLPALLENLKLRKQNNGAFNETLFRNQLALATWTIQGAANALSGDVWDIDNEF

T2 sequence (P02769 25-607 limits assumed): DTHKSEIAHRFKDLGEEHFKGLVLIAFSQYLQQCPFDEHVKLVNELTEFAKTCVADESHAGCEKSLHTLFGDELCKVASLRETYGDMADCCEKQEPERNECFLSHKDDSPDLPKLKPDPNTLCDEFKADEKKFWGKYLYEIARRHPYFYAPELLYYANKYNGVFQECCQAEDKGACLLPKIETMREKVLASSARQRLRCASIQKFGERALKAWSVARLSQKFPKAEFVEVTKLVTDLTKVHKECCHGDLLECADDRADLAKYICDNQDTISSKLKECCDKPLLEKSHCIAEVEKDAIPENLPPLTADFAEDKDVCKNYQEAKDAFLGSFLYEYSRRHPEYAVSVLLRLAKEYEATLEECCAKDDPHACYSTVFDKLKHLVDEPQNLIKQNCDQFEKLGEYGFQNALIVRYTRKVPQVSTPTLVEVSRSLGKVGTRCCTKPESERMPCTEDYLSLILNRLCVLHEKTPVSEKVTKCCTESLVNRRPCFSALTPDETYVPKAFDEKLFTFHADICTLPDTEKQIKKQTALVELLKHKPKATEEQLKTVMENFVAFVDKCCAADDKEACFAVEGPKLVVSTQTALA

- binding result (CTLA-4): no binding (tested: 1μg/mL)
- binding result (BSA): no binding (tested: 1μg/mL)
- EC50 세포성장 저해, parent암 세포주 (AlamarBlue) [1]: 18.3 nM
- EC50 세포성장 저해, 암 줄기세포주 (AlamarBlue) [1]: 53.3 nM
B1: 1E12 항체 (antibody, V domains shown)
VH: QMQLVQSGAEVKKPGASVKVSCKASGYIFTDYYMHWVRQAPGQGLEWMGGISPIFGTANYAQNFQGRVTITADESTTTAYMELSNLRSEDTAVYYCAKDGAGPEYYYYGLDVWGQGTSVTVSS
VL: QSALTQPPSVSGSPGQSVTISCTGTSSDIGGYNYVSWYQHHPGKAPKLVISEVTKRPSGVPGRFSGSKSGNTASLTVSGLQAEDEADYYCSSYSDSDNLLFGGGTKLTVLG
notes: also called b) 단클론 항체
